Source: patent publication US20100310549A1 (Bristol-Myers Squibb, published 2010)

Target: T1, full-length human KDR on CHO-KDR cells (human, UniProt P35968 20-1356)
T1 construct: whole, on cells; stably transfected CHO-K1 cells
Assay: flow cytometry on CHO-KDR cells, His6-tagged protein, anti-His6 MAb and Alexa Fluor 488 anti-mouse antibody
Experimental: Binding of fibronectin-based scaffold protein to cell-surface KDR and Flk-1 was analyzed simultaneously on VEGF-R2-expressing and control cells by flow cytometry. CHO-pcDNA3 cells (control) were released from their dishes with trypsin-EDTA, washed in Dulbecco's PBS without calcium and magnesium (D-PBS⁻; Invitrogen), and stained for 30 minutes at 37° C. with 1.5 μM CMTMR (5-(and-6)-(((4-chloromethyl)benzoyl)amino)-tetramethylrhodamine) (Molecular Probes). The cells were washed in D-PBS⁻ and incubated for a further 30 minutes at 37° C., and then resuspended in blocking buffer (D-PBS710% fetal bovine serum) on ice. CHO-KDR or CHO-Flk cells were treated identically except that CMTMR was omitted. […] For cells treated with an anti-KDR mouse monoclonal antibody (Accurate Chemical, Westbury, N.Y.) or an anti-flk-1 goat polyclonal antibody (R&D Systems), the anti-His₆ step was omitted, and antibody binding was detected with the species-appropriate Alexa Fluor 488 conjugated secondary antibody (Molecular Probes). Following staining, cells were resuspended in 200 μl/well D-PBS⁻/1% FBS/1 μg/ml 7-aminoactinomycin D (7-AAD; Molecular Probes) and analyzed by flow cytometry on a FACSCalibur (Becton Dickinson, San Jose, Calif.) equipped with a […]. […]

T1 sequence (P35968 20-1356): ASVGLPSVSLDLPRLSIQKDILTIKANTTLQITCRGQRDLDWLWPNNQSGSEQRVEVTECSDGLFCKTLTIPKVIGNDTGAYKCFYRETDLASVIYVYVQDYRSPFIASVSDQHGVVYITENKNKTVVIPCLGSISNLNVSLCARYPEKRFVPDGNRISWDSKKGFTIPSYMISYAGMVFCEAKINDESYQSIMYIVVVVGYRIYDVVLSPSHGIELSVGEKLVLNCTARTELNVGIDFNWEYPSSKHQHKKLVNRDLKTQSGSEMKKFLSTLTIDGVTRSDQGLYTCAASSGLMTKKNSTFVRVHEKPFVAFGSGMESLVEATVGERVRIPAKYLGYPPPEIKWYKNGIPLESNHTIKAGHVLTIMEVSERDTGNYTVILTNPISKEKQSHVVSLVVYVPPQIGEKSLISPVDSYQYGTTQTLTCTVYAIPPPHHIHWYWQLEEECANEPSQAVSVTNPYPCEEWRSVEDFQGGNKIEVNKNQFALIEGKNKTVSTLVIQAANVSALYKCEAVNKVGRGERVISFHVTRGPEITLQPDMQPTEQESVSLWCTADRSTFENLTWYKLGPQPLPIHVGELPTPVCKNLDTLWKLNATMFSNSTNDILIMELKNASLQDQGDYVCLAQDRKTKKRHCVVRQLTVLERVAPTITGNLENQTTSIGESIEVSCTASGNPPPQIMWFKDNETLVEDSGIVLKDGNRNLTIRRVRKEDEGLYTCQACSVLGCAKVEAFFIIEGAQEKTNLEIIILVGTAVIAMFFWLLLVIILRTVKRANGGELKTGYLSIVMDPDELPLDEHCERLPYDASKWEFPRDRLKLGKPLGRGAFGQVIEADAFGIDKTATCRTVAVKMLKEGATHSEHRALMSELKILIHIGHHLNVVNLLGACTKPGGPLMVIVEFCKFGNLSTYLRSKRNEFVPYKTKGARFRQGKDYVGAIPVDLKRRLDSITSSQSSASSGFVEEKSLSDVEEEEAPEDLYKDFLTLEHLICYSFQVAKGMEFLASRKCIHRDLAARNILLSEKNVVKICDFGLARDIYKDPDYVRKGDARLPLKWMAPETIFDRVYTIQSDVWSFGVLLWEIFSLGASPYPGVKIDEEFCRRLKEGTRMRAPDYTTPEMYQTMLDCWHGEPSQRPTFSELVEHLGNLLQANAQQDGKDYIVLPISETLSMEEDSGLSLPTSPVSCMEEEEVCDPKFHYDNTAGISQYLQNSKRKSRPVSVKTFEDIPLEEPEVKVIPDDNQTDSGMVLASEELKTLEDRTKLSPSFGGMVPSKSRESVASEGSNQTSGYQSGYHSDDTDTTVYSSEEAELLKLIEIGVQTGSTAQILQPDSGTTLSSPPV

B1: WT fibronectin-based scaffold protein (wild-type 10Fn3), E. coli, His6 (other)
chain: VSDVPRDLEVVAATPTSLLISWDAPAVTVRYYRITYGETGGNSPVQEFTVPGSKSTATISGLKPGVDYTITGYAVTGRGDSPASSKPISINYRTEIDKPSQHHHHHH
notes: E. coli-expressed soluble form; N-terminal Met not described
binding result: no binding (tested: log[M] about -6.9 (about 1e-7 M))
